Source: the supplement of paper PMC12042874
± gives the uncertainty stated by the source.

Assay: amyloid nucleation score (Sup35N fusion, yeast selection) (log enrichment); library NNK1; higher = more nucleation; inactive = no reads after selection
How it was run: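 DiMSum was used to calculate nucleation scores as log enrichment of output over input reads, centred on the mode score of non-aggregating sequences. Sequences with fewer than 100 input reads were not scored. Input and output came from Illumina sequencing of plasmid inserts in psi-negative yeast expressing peptides of 20 random codons fused to Sup35N, induced 24 hours with 100 μM copper sulfate and then grown 7 days at 30°C on medium lacking adenine and uracil.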

Substance | amyloid nucleation score
RLHSKRAHTRS | inactive
DTECRGMKVELHRTHRMGKF | -0.179 ± 0.62
MDKSTMVGIKCTMRVSRQMG | -0.158 ± 0.56
RPEISTPFMYGYFVSGVGVA | inactive
RILAIIVGVSAVSKKSNNEL | 0.913 ± 0.48
FLICDGSDRQMF | 0.315 ± 0.23
SVGTDY | -0.465 ± 1.6
MAFMLWLDYW | 0.395 ± 0.32
CSILYAAPKIRQSARFLMLS | 0.451 ± 0.32
FFICKFL | -0.427 ± 1.9
LCQGEKISPVKQHHVYCLGE | 0.649 ± 0.85
DPICYKRNKANVYLGRFGYR | 0.7 ± 0.66
YYGVWVDREHWL | 0.628 ± 0.48
VQNGGSLTMPRALLANTWMS | -0.671 ± 0.42
TMYVALFLFLA | 2.54 ± 0.29
CVFIHRSFHTLFSGRRVDYP | 0.229 ± 0.55
LHLPHLRIRTNYSGLILSVM | -0.513 ± 0.56
WHFSMFREWRSS | -0.649 ± 0.73
YGGFIESLLACAKGESRNMM | -0.608 ± 1
NCWQLYLKHSVPRRIQRGYA | -0.577 ± 0.48
SWRNVLKSGASRNKVDRSSL | -0.22 ± 1.1
YAAGGIRKSVGSTVRSPWGA | 0.903 ± 0.84

Substance | amyloid nucleation score
LSPWSKTSIYCNLLPCIVSR | 0.571 ± 0.3
IAILIYASAFKSSSGCGVKS | 0.177 ± 0.64
VSRWHQCADPPRCGHRCIWA | 0.299 ± 0.51
SSRLVSFFGHSNTVLRMFNW | inactive
GIFKVEHFFKFMYDLIVSKL | -0.312 ± 0.27
AVSIRCFGRMMTLSGSKIAG | 0.838 ± 0.25
FCPDICTWKNWSMWMQLEDL | 0.89 ± 0.54
GFCYM | 0.997 ± 0.35
NYILFWRTSSNFECPYP | 0.181 ± 0.24
TIMFLVITIPRFHNDLMVLS | -0.79 ± 0.37
PIIILFL | 1.15 ± 0.54
LNSLVKALQSVNNYVDLTYS | 0.358 ± 1.1
HLSSTVITLVPCRLEMYLEG | 0.55 ± 0.25
RGDGTRNRRCAIFSN | -0.064 ± 0.99
FESMVTIILIDPFDVLIGDG | inactive
CWYET | -1.27 ± 1.9
FRVYFIVRVPYI | 1.36 ± 0.52
ECMVYDYNYWVHVYGITYCC | 0.242 ± 0.35
SIQCKKFGGIWCTDTRSIGP | 1.33 ± 0.33
TDDATNVRKGAHS | 0.602 ± 0.6
WFYICVVSFDLGIKRRYRHR | inactive
KWGHSENVVVYFDGAFSWVS | 0.16 ± 0.6

Substance | amyloid nucleation score
EEWFETGCENGCNVEGNRSC | -0.117 ± 0.57
IWYFLCICSLYRLEYHLLDC | -0.405 ± 0.25
WSRYNSPCSKSMRYRSVSEA | -1.37 ± 1.1
VETRRWFHRL | -0.177 ± 1.4
FCWKLGANIDVDECWRWAAD | 1.29 ± 0.63
SIRCLIREKA | -0.238 ± 0.75
HWLQY | 0.156 ± 0.43
ETRTHWVRLAANNNFH | 0.135 ± 0.88
ISCVICAMIILRWHV | 0.045 ± 0.9
FTMFFPMGSVC | 0.292 ± 0.64
RYNRLCTSLGRFKVVKSILS | 0.131 ± 0.33
WASEMRHGWRAHNIYVGEDC | 0.937 ± 0.59
SVISNVCSKCTVTRRDGP | 3.17 ± 0.11
TMKVGYQGICYTETSGMSFV | inactive
TLCCLT | inactive
GHRTWRLITAIDA | 0.088 ± 0.4
SFIDDCP | inactive
RMYWVDFAGLFIDCL | inactive
NSHDKVGVSILWTGRSRLVA | -0.003 ± 0.45
FSGGGNITACGCV | -0.385 ± 0.65
FDSFKVRYN | -0.724 ± 0.7
MYPTLRTRPTCIYVR | 1.19 ± 0.53

Substance | amyloid nucleation score
LTYLNMALVCRFFYVFRHDW | 0.799 ± 0.57
HQLGQYHTACHAPSARCTPL | -0.221 ± 0.52
FVCWVGTGLMIRVAIDQCWR | -0.202 ± 0.31
DLFYDGCSRFLVMSKGTALV | -0.412 ± 1.2
IAVPRRQPINLSN | 0.668 ± 0.56
YEGELTSKKFFAQVNSRVGG | -0.581 ± 1.4
WRLLCSITMDWF | -0.15 ± 0.22
CLATLSMSYLLFVSGLRRIK | -0.554 ± 0.59
FIFLRYGLYVFFASLNGQGY | -0.33 ± 0.83
WKNLGQV | -0.327 ± 0.39
MTRVCL | -0.035 ± 0.62
NLYMANGDVMCSREGAEQCS | 1.5 ± 0.14
KVGLDIWGASGTN | 0.525 ± 0.48
GVMACDMCCPNKRVSEPRAS | -0.278 ± 0.41
VRAFGYDGLHLVITCYHCRH | 0.726 ± 0.77
PRPQLPVKYLYSRLIGETCG | 3.25 ± 0.071
SITVVSNEFNVVNVILCGCY | 7.009 ± 0.046
CLVERATITHFASCVEAYFY | -0.224 ± 1.4
GIKFQSVGGGVVANSVR | inactive
